Changes are numbered by the printed parent chain.
Columns and labels:
Human BTC-avitag-biotin [1] = target: T1, Human BTC-avitag-biotin (human, UniProt P35070 32-111, biotin on the avitag); assay: flow cytometry, BTC-ErbB1 Cell Binding Inhibition: antibody pre-incubated with 15 nM human BTC-avitag-biotin, HKB11 cells over-expressing human ErbB1; y axis Percent Inhibition
T1 construct: also called biotin-BTC; soluble human BTC-avitag-biotin
T1 sequence: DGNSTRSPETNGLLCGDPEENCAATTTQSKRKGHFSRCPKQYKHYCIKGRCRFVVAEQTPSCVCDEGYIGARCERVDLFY
Description: (§1) HKB11 over-expressing either ErbB1 or ErbB4 cells were plated 1×10⁵ cells/well. Cells were washed once with FACS buffer by spun down at 1200 rpm for 5 minutes and supernatant removed. Next, the Fab sample dilutions and BTC were prepared in FACS buffer. Human BTC-avitag-biotin was diluted to a fixed concentration of 15 nM. The test Fab samples were prepared at a starting concentration of 40 nM and titrated for 9 points at a serial dilution of 1:2. Both biotin-BTC and the test Fab samples are incubated for 30 minutes at room temperature. The pre-incubated samples were then added to the cell plate at 100 μl per well in duplicate and incubated for 1 hour on ice. The plate was then washed once in FACS buffer and spun down at 1200 rpm for 5 minutes and supernatant removed. […]
(§2) Measurements were performed on Attune Flow Cytometry machine. Data were analysed using the Flow Jo software. The live cell populations analysed were gated in forward and side scattering (FSC-A/SSC-A dot plot). The interval gate was established on the control histogram, which was obtained with sample incubated in streptavidin-Alexa Fluor488 only, and subsequently, determined percent of positive binding events of cells carrying membrane-bound receptor ErbB1 or ErbB4 and biotin-BTC. The median of fluorescence intensity (MFI) value was also derived for the live cell population. […]

[2] = target: T2, membrane-bound human BTC on 293F-hBTC cells (human, UniProt P35070 32-111); assay: cell-based or functional assay
T2 sequence: T1 sequence

Human BTC [3] = target: T3, Human BTC (human, UniProt P35070 32-111); assay: cell-based or functional assay
T3 sequence: T1 sequence

[4] = target: T2, membrane-bound human BTC on 293F-hBTC …; assay: flow cytometry, 293F cells with BTC against 293F
Human BTC [5] = target: T3, Human BTC; assay: MSD-based inhibition of BTC binding to ErbB1
[6] = target: T2, membrane-bound human BTC on 293F-hBTC …; assay: flow cytometry on 293F cells with membrane-bound human BTC, anti-human Fab detection; y axis Percent Positive Binding, x axis Antibody concentration (nM)
Description: After washing the cells, the cells were dissociated using Versene at 37° C. The cells were washed with FACS buffer and plated at 100 μl in a 96 well plate using cells at 1×10⁶ cells/ml. Then 100 μl of a serial dilution of antibodies starting at 50 nM was used. The cells were incubated, washed and then treated with the secondary anti-human Fab-FITC antibody. The antibodies only bound to the cells expressing BTC. After which the cells were washed and analyzed on the Attune Flow Cytometry. All data analysis was carried out using Flow Jo software.
In FIG. 6A, Flow cytometry was used to assess the binding of NVS11 to membrane-bound BTC using an anti-human Fab antibody for detection.

Human BTC [7] = target: T3, Human BTC; assay: cell-based inhibition of BTC binding to ErbB4
Human BTC [8] = target: T3, Human BTC; assay: cell-based inhibition of BTC binding to ErbB1
Human BTC [9] = target: T3, Human BTC; assay: SPR Biacore T200, anti-Fab capture, antigen as analyte
Rat BTC = target: T4, Rat BTC (rat, UniProt Q9JJM4 32-111); assay: SPR (Biacore/ProteOn)
T4 sequence: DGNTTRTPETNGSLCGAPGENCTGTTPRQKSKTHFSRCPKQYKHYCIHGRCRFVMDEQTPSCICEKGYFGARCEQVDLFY

Cyno BTC = target: T5, Cyno BTC (cynomolgus, UniProt A0A2K5X5E5 32-111); assay: SPR (Biacore/ProteOn)
T5 construct: also called cynomolgus BTC
T5 sequence: T1 sequence with E19D, A56T

Human BTC [10] = target: T3, Human BTC; assay: SPR (Biacore/ProteOn)
Rabbit BTC = target: T6, Rabbit BTC (rabbit, UniProt G1SJ89 32-111); assay: SPR (Biacore/ProteOn)
T6 sequence: T1 sequence with D1S, L14S, D17Y, E19G, A23T, T27V, S29P, V63I, I69T

Mouse BTC = target: T7, Mouse BTC (mouse, UniProt Q05928 32-111, limits assumed); assay: SPR (Biacore/ProteOn)
T7 sequence (looked up): T4 sequence with S31V, M55V, Q75R

Human BTC [11] = target: T3, Human BTC; assay: MSD-based inhibition of BTC binding to ErbB4
Human BTC-avitag-biotin [12] = target: T1, Human BTC-avitag-biotin; assay: flow cytometry, BTC-ErbB4 Cell Binding Inhibition: antibody pre-incubated with 15 nM human BTC-avitag-biotin, HKB11 cells over-expressing human ErbB4; y axis Percent Inhibition
Description: as §1, §2

B1: NVS1 (Fab, V domains shown)
VH: QVQLVQSGAEVKKPGSSVKVSCKASGGTFSSYAISWVRQAPGQGLEWMGGIVPWMGEAVYAQKFQGRVTITADESTSTAYMELSSLRSEDTAVYYCARSSSTYGIHAFDYWGQGTLVTVSS
VL: DIQMTQSPSSLSASVGDRVTITCRASQSISNFLNWYQQKPGKAPKLLIYAASNLQSGVPSRFSGSGSGTDFTLTISSLQPEDFATYYCQQYDDFPMTFGQGTKVEIKR
notes: also called Fab NVS1; NVS1 Fab
IC50 (Human BTC-avitag-biotin [1]): 2500 pM
Neutralization of juxtacrine signaling [2]: 89%
A431 pERK (IC50 in nM) (Human BTC [3]): 0.25 nM
ADR/Res pErbB3 (IC50 in nM) (Human BTC [3]): 5.7 nM
inhibition (Human BTC [3]): 99.7%
Binding to membrane-anchored BTC (median, X above 293F) [4]: > 10 X above 293F
MSD-based binding inhibition BTC/ErbB1 (Human BTC [5]): > 90%
EC50 [6]: 133 pM
Cell-based binding inhibition BTC/ErbB4 (Human BTC [7]): > 90%
Cell-based binding inhibition BTC/ErbB1 (Human BTC [8]): > 90%
Kd (Human BTC [9]): 1.7 pM
Kd (Rat BTC): 7 pM
Kd (Cyno BTC): 8 pM
Kd (Human BTC [10]): 6 pM
Kd (Rabbit BTC): 4 pM
Kd (Mouse BTC): 4 pM
MSD-based binding inhibition BTC/ErbB4 (Human BTC [11]): > 90%
IC50 (Human BTC-avitag-biotin [12]): 7400 pM

Reference: patent US20220025032A1 (Novartis, published 2022)
